From patent US20240124615A1 (HEFEI TG IMMUNOPHARMA, published 2024)
Changes are numbered by the printed parent chain.

B1: CD3xB7H6-2 bispecific antibody (bispecific antibody, human IgG1, L234A L235A)
chain 1: not shown
chain 2: DIVLTQSPDSLAVSLGERATINCKASQSVDYDGDSYMNWYQQKPGQPPKLLIYAASTLHSGVPDRFSGSGSGTDFTLTISSLQAEDVAVYYCQQSKEDPRTFGQGTKLEIKGGGGSGGGGSGGGGSEVQLVQSGAEVKKPGASVKVSCKASGYTFTDYNMDWVRQAPGQGLEWIGDINPNNGGTLYNQKFRGRVTLTVDTSISTAYMELSRLRSDDTAVYYCARSEVFYGNYADYWGQGTTVTVSSEPKSCDKTHTCPPCPAPEAAGGPSVFLFPPKPKDTLMISRTPEVTCVVVDVSHEDPEVKFNWYVDGVEVHNAKTKPREEQYNSTYRVVSVLTVLHQDWLNGKEYKCKVSNKALPAPIEKTISKAKGQPREPQVCTLPPSRDELTKNQVSLSCAVKGFYPSDIAVEWESNGQPENNYKTTPPVLDSDGSFFLVSKLTVDKSRWQQGNVFSCSVMHEALHNHYTQKSLSLSPGK
notes: Heterodimer of two scFv-Fc units, knob-into-hole human IgG1 Fc; name formed by analogy with CD3xB7H6-14
B2: CD3xB7H6-8 bispecific antibody (bispecific antibody, human IgG1, L234A L235A)
chain 1: not shown
chain 2: B1 chain 2 with V62I, Q169K, T200K
notes: as for B1
B3: CD3xB7H6-1 bispecific antibody (bispecific antibody, human IgG1, L234A L235A)
chain 1: not shown
chain 2: B1 chain 2 with I174M, L196M
notes: Heterodimer of two scFv-Fc monovalent units, knob-into-hole human IgG1 Fc; name formed by analogy with the printed CD3xB7H6-14
B4: CD3xB7H6-4 bispecific antibody (bispecific antibody, human IgG1, L234A L235A)
chain 1: not shown
chain 2: B1 chain 2 with Q169K, T200K
notes: as for B1
B5: CD3xB7H6-3 bispecific antibody (bispecific antibody, human IgG1, L234A L235A)
chain 1: not shown
chain 2: B1 chain 2 with T200K
notes: as for B1
B6: CD3xB7H6-5 bispecific antibody (bispecific antibody, human IgG1, L234A L235A)
chain 1: not shown
chain 2: B1 chain 2 with V62I, I174M, L196M
notes: as for B1
B7: CD3xB7H6-7 bispecific antibody (bispecific antibody, human IgG1, L234A L235A)
chain 1: not shown
chain 2: B1 chain 2 with V62I, T200K
notes: as for B1
B8: CD3xB7H6-6 bispecific antibody (bispecific antibody, human IgG1, L234A L235A)
chain 1: not shown
chain 2: B1 chain 2 with V62I
notes: as for B1
B9: CD3xB7H6-17 bispecific antibody (bispecific antibody, human IgG1, L234A L235A)
chain 1: not shown
chain 2: DIVLTQSPVSLAVPLGQRATISCKASQSVDYDGDSYMNWYQQKPGQPPKLLIYAASTLHSGIPVRFSGSGSGTDFTLNIHPVEEEDAASYYCQQSKEDPRTFGGGTKLEIKGGGGSGGGGSGGGGSEVLLQQSGPEVVKPGASVKITCKASGYTFTDYNMDWVKQSHGKSLEWIGDINPNNAGTLYNQKFRGRVTLIVDKSSSTAYMELRSLTSDDTAVYYCARSEVFYGNYADYWGQGTTLTVSSEPKSCDKTHTCPPCPAPEAAGGPSVFLFPPKPKDTLMISRTPEVTCVVVDVSHEDPEVKFNWYVDGVEVHNAKTKPREEQYNSTYRVVSVLTVLHQDWLNGKEYKCKVSNKALPAPIEKTISKAKGQPREPQVCTLPPSRDELTKNQVSLSCAVKGFYPSDIAVEWESNGQPENNYKTTPPVLDSDGSFFLVSKLTVDKSRWQQGNVFSCSVMHEALHNHYTQKSLSLSPGK
notes: as for B1
B10: CD3xB7H6-18 bispecific antibody (bispecific antibody, human IgG1, L234A L235A)
chain 1: not shown
chain 2: B9 chain 2 with G33A, A182G
notes: as for B1
B11: CD3xB7H6-10 bispecific antibody (bispecific antibody, human IgG1, L234A L235A)
chain 1: not shown
chain 2: DIVLTQTPLSLSVTPGQPASISCKASQSVDYDGDSYMNWYLQKPGQPPQLLIYAASTLHSGVPDRFSGSGSGTDFTLKISRVEAEDVGVYYCQQSKEDPRTFGQGTKLEIKGGGGSGGGGSGGGGSEVQLVQSGAEVKKPGASVKVSCKASGYTFTDYNMDWVRQAPGQGLEWIGDINPNNGGTLYNQKFRGRVTLTVDTSISTAYMELSRLRSDDTAVYYCARSEVFYGNYADYWGQGTTVTVSSEPKSCDKTHTCPPCPAPEAAGGPSVFLFPPKPKDTLMISRTPEVTCVVVDVSHEDPEVKFNWYVDGVEVHNAKTKPREEQYNSTYRVVSVLTVLHQDWLNGKEYKCKVSNKALPAPIEKTISKAKGQPREPQVCTLPPSRDELTKNQVSLSCAVKGFYPSDIAVEWESNGQPENNYKTTPPVLDSDGSFFLVSKLTVDKSRWQQGNVFSCSVMHEALHNHYTQKSLSLSPGK
notes: as for B1
B12: CD3xB7H6-11 bispecific antibody (bispecific antibody, human IgG1, L234A L235A)
chain 1: not shown
chain 2: B11 chain 2 with T200K
notes: as for B1
B13: CD3xB7H6-13 bispecific antibody (bispecific antibody, human IgG1, L234A L235A)
chain 1: not shown
chain 2: B11 chain 2 with V62I, I174M, L196M
notes: as for B1
B14: CD3xB7H6-14 bispecific antibody (bispecific antibody, human IgG1, L234A L235A)
chain 1: not shown
chain 2: B11 chain 2 with V62I
notes: Heterodimer of two scFv-Fc units, knob-into-hole human IgG1 Fc; lead molecule; also called CD3kB7H6-14
B15: CD3xB7H6-9 bispecific antibody (bispecific antibody, human IgG1, L234A L235A)
chain 1: not shown
chain 2: B11 chain 2 with I174M, L196M
notes: as for B1
B16: CD3xB7H6-16 bispecific antibody (bispecific antibody, human IgG1, L234A L235A)
chain 1: not shown
chain 2: B11 chain 2 with V62I, Q169K, T200K
notes: as for B1
B17: CD3xB7H6-12 bispecific antibody (bispecific antibody, human IgG1, L234A L235A)
chain 1: not shown
chain 2: B11 chain 2 with Q169K, T200K
notes: as for B1
B18: CD3xB7H6-15 bispecific antibody (bispecific antibody, human IgG1, L234A L235A)
chain 1: not shown
chain 2: B11 chain 2 with V62I, T200K
notes: as for B1

Biological target: T1, Human B7H6 (ACRO biosystems, cat. No. B76-H52H8) (human, UniProt Q68D85 25-262)
T1 construct: Bought antigen; also called B7H6 antigen; human B7H6 protein
T1 sequence (looked up): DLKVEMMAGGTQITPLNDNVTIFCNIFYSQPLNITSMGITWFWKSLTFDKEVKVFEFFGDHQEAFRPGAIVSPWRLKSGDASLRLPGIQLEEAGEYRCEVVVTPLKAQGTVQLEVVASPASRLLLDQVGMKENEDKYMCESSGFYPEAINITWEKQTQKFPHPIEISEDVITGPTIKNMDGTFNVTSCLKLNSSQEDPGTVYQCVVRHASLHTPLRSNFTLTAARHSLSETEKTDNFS
Assay: ELISA, B7H6 coated, HRP anti-human IgG detection
Description: Human B7H6 (ACRO biosystems, cat. No. B76-H52H8) and human CD3 antigen (ACRO biosystems, cat. No. CDD-H52W1) were diluted to 2 μg/mL with coating buffer (35 mM NaHCO₃, 15 mM Na₂CO₃, pH 9.6), respectively. 100 μL of the diluted solution was added to each well of an ELISA plate at 4° C. overnight, and then washes with PBST (0.05% Tween 20-PBS, pH 7.2) 3 times. 300 μL of blocking buffer (1% BSA, 0.05% Tween20-PBS, pH 7.2) was added to the plate and allowed to stand at room temperature for 2 h, followed by washing with PBST three times. The corresponding bispecific antibody was added to each well and incubated at room temperature for 1 h, followed by washing with PBST three times. 100 μL of HRP-rabbit anti human IgG secondary antibody (Boster, cat. No. BA1070) diluted in blocking buffer was added to each well and incubated for 1 h at room temperature, followed by washing with PBST three times. TMB was added into each well. The plate was kept away from light at room temperature for 2-5 min, the reaction was stopped by adding 2 M sulfuric acid in each well, and finally OD450 values were read with microplate reader.

| Binder | binding result |
| --- | --- |
| B1 | binds |
| B2 | binds |
| B3 | binds |
| B4 | binds |
| B5 | binds |
| B6 | binds |
| B7 | binds |
| B8 | binds |
| B9 | binds |
| B10 | binds |
| B11 | binds |
| B12 | binds |
| B13 | binds |
| B14 | binds |
| B15 | binds |
| B16 | binds |
| B17 | binds |
| B18 | binds |
